Target: RlucII-Rab7A (UniProt P51149 1-207)
Experiment: FRET or BRET

Sequence of RlucII-Rab7A (P51149 whole entry): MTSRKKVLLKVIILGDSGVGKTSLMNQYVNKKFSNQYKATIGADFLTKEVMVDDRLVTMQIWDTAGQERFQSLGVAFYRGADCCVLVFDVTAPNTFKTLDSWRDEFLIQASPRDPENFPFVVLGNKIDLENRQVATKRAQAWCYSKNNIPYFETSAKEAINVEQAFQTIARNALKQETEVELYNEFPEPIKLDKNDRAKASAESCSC

B1: PLEKHM1-GFP10 (natural protein, UniProt Q9Y4G2 1-1056, looked up)
chain: MLSVVENGLDPQAAIPVIKKKLVGSVKALQKQYVSLDTVVTSEDGDANTMCSALEAVFIHGLHAKHIRAEAGGKRKKSAHQKPLPQPVFWPLLKAVTHKHIISELEHLTFVNTDVGRCRAWLRLALNDGLMECYLKLLLQEQARLHEYYQPTALLRDAEEGEFLLSFLQGLTSLSFELSYKSAILNEWTLTPLALSGLCPLSELDPLSTSGAELQRKESLDSISHSSGSEDIEVHHSGHKIRRNQKLTASSLSLDTASSSQLSCSLNSDSCLLQENGSKSPDHCEEPMSCDSDLGTANAEDSDRSLQEVLLEFSKAQVNSVPTNGLSQETEIPTPQASLSLHGLNTSTYLHCEAPAEPLPAQAASGTQDGVHVQEPRPQAPSPLDLQQPVESTSGQQPSSTVSETAREVGQGNGLQKAQAHDGAGLKLVVSSPTSPKNKSWISEDDFYRPSREQPLESASDHPIASYRGTPGSRPGLHRHFSQEPRKNCSLGALDQACVPSPGRRQAQAAPSQGHKSFRVVHRRQMGLSNPFRGLMKLGTVERRGAMGIWKELFCELSPLEFRLYLSNEEHTCVENCSLLRCESVGPAHSDGRFELVFSGKKLALRASSQDEAEDWLDRVREALQKVRPQQEDEWVNVQYPDQPEEPPEAPQGCLSPSDLLSEPAALQGTQFDWSSAQVPEPDAIKESLLYLYMDRTWMPYIFSLSLEALKCFRIRNNEKMLSDSHGVETIRDILPDTSLGGPSFFKIITAKAVLKLQAGNAEEAALWRDLVRKVLASYLETAEEAVTLGGSLDENCQEVLKFATRENGFLLQYLVAIPMEKGLDSQGCFCAGCSRQIGFSFVRPKLCAFSGLYYCDICHQDDASVIPARIIHNWDLTKRPICRQALKFLTQIRAQPLINLQMVNASLYEHVERMHLIGRRREQLKLLGDYLGLCRSGALKELSKRLNHRNYLLESPHRFSVADLQQIADGVYEGFLKALIEFASQHVYHCDLCTQRGFICQICQHHDIIFPFEFDTTVRCAECKTVFHQSCQAVVKKGCPRCARRRKYQEQNIFA
  fold change of BRET50, CLN3-KO against wild-type HeLa cells: 3.5 fold

Source: article doi:10.1101/634915 (bioRxiv, 2019)
